Reference: patent US8697655B2, “Method of selecting polypeptide sequence, and metal oxide or silicon-containing compound binding peptide and use thereof” (Riken, priority 2010, dated 2014)

Columns and labels:
[1] = Binding of P-EGFs to TiO2 plate, anti-EGF antibody chemiluminescence detection; conditions: about 2.0 ng, 10 μl in TBS pH 7.5; washed 3 times with TBS-T; anti-human EGF antibody and HRP secondary
Experimental: Subsequently, in accordance with a scheme in the left in FIG. 4-2, various P-EGF solutions (about 2.0 ng, 10 μl in TBS, pH 7.5) were added on a TiO2 plate (a plate produced by vapor deposition of titanium on the surface of a glass plate with a diameter of 15 mm and a thickness of 0.6 mm (manufactured by Matsunami Glass Ind., Ltd.) (the vapor deposition step was requested to Osaka Vacuum Industrial Co., Ltd.) was used); and a washing operation (TBS-T buffer, pH 7.5) was repeated 3 times. And, after blocking with 0.1% BSA solution, an anti-human EGF antibody was added as a primary antibody. Furthermore, after the washing operation (TBS-T buffer, pH 7.5) was repeated 3 times, an anti-mouse IgG antibody HRP conjugate was added as a secondary antibody. At the end, using a luminescent phenomenon by a reaction between a chemiluminescence reagent and HRP as an index, the presence of protein immobilized on the TiO2 plate was detected. […]
First, in accordance with a scheme in the left in FIG. 7-1, various P-EGF solutions (about 2.0 ng, 10 μl in TBS, pH 7.5) were added on a TiO2 plate and a washing operation (TBS-T buffer, pH 7.5) was repeated 3 times. […] At the end, using a luminescent phenomenon by a reaction between a chemiluminescence reagent and HRP as an index, the presence of protein immobilized on the TiO2 plate was detected.

NRK-49F fibroblasts = assay: NRK-49F fibroblast proliferation on sTOP1-EGF immobilized TiO2 plate; format: cell-based; conditions: about 5.0 ng immobilized; ca. 5,000 cells seeded; 6 days; 1% FBS DMEM; vs TiO2 plate with EGF alone added
Experimental: First, in accordance with a scheme in the left in FIG. 7-2, sTOP1-EGF solution (about 5.0 ng, 12 μl in TBS, pH 7.5) was added onto the TiO2 plate and a washing operation (TBS-T buffer, pH 7.5) was then repeated 3 times. And, by blocking with 0.1% BSA solution, a “sTOP1-EGF immobilized TiO2 plate” was prepared. And then, ca. 5,000 NRK-49F fibroblasts were seeded on the sTOP1-EGF immobilized TiO2 plate, cultured for 6 days (1% FBS containing DMEM medium was used), and subjected to microscopy (cells were not stained).

B1: MQAYYNYYSNYYGRSYSSDGQLGQFEGNSDSECPLSHDGYCLHDGVCMYI EALDKYACNCVVGYIGERCQYRDLKWWELR (peptide)
chain: MQAYYNYYSNYYGRSYSSDGQLGQFEGNSDSECPLSHDGYCLHDGVCMYIEALDKYACNCVVGYIGERCQYRDLKWWELR
notes: chemically synthesized TOP1-EGF composed of 80 amino acids, made by peptide solid phase method
- TiO2 plate binding (luminescent phenomenon of protein immobilized on the plate) [1]: the luminescent phenomenon could be confirmed
- Proliferation of NRK-49F fibroblasts on the immobilized TiO2 plate (microscopy) (NRK-49F fibroblasts): markedly proliferated
